Results as given in paper PMC3470550.

Molecular target: Cdk2/cyclin A complex (Cdk2 phosphorylated at threonine 160 with truncated cyclin A) (human) (UniProt P24941)

Substance: peptide corresponding to the Cdk binding domain of p27
- IC50 of inhibition of Cdk2/cyclin A kinase activity (data not shown; 25% residual kinase activity even at peptide concentrations as high as 17 µM): 125 nM
